Patent US7868228

Target: Moritella marina polyketide synthase (PKS), four polypeptides Orf5, Orf6, Orf7 and Orf8

Protein | DHA Produced (gas chromatography of fatty acid methyl esters from E. coli co-expressing the Ppt and the PKS)
Moritella marina phosphopantetheinyl transferase, long form (Mm-ppt long) (protein) LVQLKTYDETRLRSDGVNYLGGNLSYYQACNGKRIILVSILIMYSGVKDKLTLTTNEIHLWSVTPQTIQQPELLQAYSQLLSPAETIKQQRFRFEKDRHNALITRAFVRDLLSHYADVLPADWQFVKGEKDKPEIANPPLPLRFNISHTDNLIICAVMLNDDIGCDVENTLRSSNVLSIAKHSFSDSEFNDLLTQPTAQQTSRFFDYWTLKESYIKAWGLGLSIPLKDFSFTLPEGFQQQYQQEDQQENQHCIDTIKLSFAPHRIDNPNIWRHWLFYPNNTHRVALAVRARSNNQQTEYKMRFFNSTPLINITETLIFKPETNFKPDAK | Yes
Shewanella oneidensis MR-1 phosphopantetheinyl transferase (So-ppt) (protein) MKIELFFIPLAEMDAEMVSRCMALLSEDERAKVARYLAPKAQMNGLLVRAALRCVLSQGLQSPNESSLNAFSSNTGSLPIAPQDWCFEYGAKGKPSLCHEQFLKTGIEFNLSHSGDWLLIALAQGRAHTKFIDQSAKTRLGLGVDIERARASTNIYPILNHYFSARETEALLALPGETAHRQRFFDLWALKESYIKATGLGLAQSLKSFAFELMPDALVEVHPNQVALRHEWVELKRREPFALPSQLKLYCEIKPTAAFLPDSAHPPPENLHVQSYFGRLDEEYRFGLSLIHPNALSNVQISMTLASIKSLLAASLAD | Yes
Colwellia psychrerythraea phosphopantetheinyl transferase (Cp-ppt) (protein) MTSFSQSELSTRTKEKLDLAANEIHIWVTKPEELLGNDELLATYSTLLTSTETAKQQRYKFAKDRHDALITRAFIRDLLSYYADVAPQDWQFEKGNKDKPEVINCPLPLRFNISHTKNLIICAVTLEDDIGCDVENTGRNNNVLAIAERYFSSKEIDELFALPEAQQRNRFFDYWTLKESYIKAWGLGLAIPLADFSFKINDTEHNHNGLFTIKQDINLSFAEHRVDEPQIWRSWLVYPTAAIDEKQEHRIAVSLRATSDNQKTDYQLRFFNTLPLLGYQEI | Yes
Moritella marina phosphopantetheinyl transferase, short form (Mm-ppt short) (protein) MYSGVKDKLTLTTNEIHLWSVTPQTIQQPELLQAYSQLLSPAETIKQQRFRFEKDRHNALITRAFVRDLLSHYADVLPADWQFVKGEKDKPEIANPPLPLRFNISHTDNLIICAVMLNDDIGCDVENTLRSSNVLSIAKHSFSDSEFNDLLTQPTAQQTSRFFDYWTLKESYIKAWGLGLSIPLKDFSFTLPEGFQQQYQQEDQQENQHCIDTIKLSFAPHRIDNPNIWRHWLFYPNNTHRVALAVRARSNNQQTEYKMRFFNSTPLINITETLIFKPETNFKPDAK | Yes
